Experimental data: the DeepSol protein solubility set

Test: soluble on expression in E. coli; label from the status in PepcDB or PDB records

Sequence | soluble on expression in E. coli
MGSDKIHHHHHHMEREKVELFKEVLKKLHKGEDVESLKKQFGELLSQIPPFEIPVIEQELLKSGEIDVRDIIKMCDLHVEFFRGAVSEAGREIEKLPNGHPLRTLYEENKQILKDAEALSLLASSMFSLPKDDPRRKQFYEKLVQHVSELHRIGLTHYTREEMLIFPYIERRGITAVPTVLWSKHDETRLKIRLLLNLLKKEESDERLKEEALELSRMLSDMVFRENNILYPTLKVLLTEGEWKAIKMLEKDIGYYKIEVTEEWETPEKPLLPHRNCLRRPIPFRGLGGSRHVYHLQIQ | not soluble
MTIQLINESSNTAKFQQICEKWQLVHDKSASLALVLTDTRLELRKLDEAKLGAIAVNFVDGTLAHRRKFGGGRGEAIAKAVGIKGNYLPSVIDATAGLGRDAFVLAAIGCKVTLVERHPVIAALLEDGLTRAYLDAEIGEFMQQRMQLANVHNIAQLDTTTQSADVVYLDPMYPHKQKSALVKKEMRVFQHLVGADLDADQFLLPAKALATKRVVVKRPDYAPPLAEQHPSFSQKTKNHRFDIYLSPLQKRLEHHHHHH | soluble
MSLAQLGRFWHISDLHLDPNYTVSKDPLQVCPSAGSQPVLNAGPWGDYLCDSPWALINSSLYAMKEIEPKPDFILWTGDDTPHVPNESLGEAAVLAIVERLTNLIKEVFPDTKVYAALGNHDFHPKNQFPAQSNRIYNQVAELWRPWLSNESYALFKRGAFYSEKLPGPSRAGRVVVLNTNLYYSNNEQTAGMADPGEQFRWLGDVLSNASRDGEMVYVIGHVPPGFFEKTQNKAWFRESFNEEYLKVIQKHHRVIAGQFFGHHHTDSFRMFYDNTGAPINVMFLTPGVTPWKTTLPGVVDGANNPGIRIFEYDRATLNLKDLVTYFLNLRQANVQETPRWEQEYRLTEAYQVPDASVSSMHTALTRIASEPHILQRYYVYNSVSYNHLTCEDSCRIEHVCAIQHVAFNTYATCLHGLGAKLVPGEGHHHHHH | not soluble
MPEVHATALIPMLTGTNVPESEEEIDAPIYDQREVEKIRGIAHNIAENAKNPEKLMPDFMAANPGIMSTMESLKLSDFGKTSTVVPSISTSPGPIFTLANGIPAVGTPGTQSSTTVKA | soluble
MIEIKNVNKVFYQGSKEILALKDINLHIAKGTIFGVIGSSGAGKSTLIRCVNMLEAPSSGSIIVDGVDLTTLSKKQLVETRRNIGMIFQHFNLLSSRTVFDNVALPLELAGKDKSQITTKVTELLKLVGLADKHESYPSNLSGGQKQRVAIARALASDPSVLLCDEATSALDPATTQSILELLKEINRKLNITILLITHEMEVVKSICHEVAIIGGGELVEKGTVGDIFAHPKTELAHEFIRSTLDLSIPEDYQARLQPNRVEGSYPLVRMEFTGATVDAPLMSQISRKYNIDVSILSSDLDYAGGVKFGMMVAELFGNEQDDSAAIEYLREHNVKVEVLGYVL | not soluble
MKCRKCGEPSVYHQKHSGNKYCRTCFIKETKRKVRKTLGRDVLKNNIKVAMGLSGGKDSLVMAYLLNEFYKEIPNSKIIAIMVNEGIEGYRLDGIEAAVKFCEKHDIEYKIVQFKDYLGTNLDEIVKLAKEKNLTMNPCSFCGVIRRKILNRVSIEEKCDFLAIGHNLDDIAQAVMMNYIEGDVKKLAFLGKSLKHPKFVKRIKPLEKIPEDEVLLLADMLELTYHKSPCPYSCLSFRSEVSEITDTLEKNHPGTKYSIVRGYERLLEHIELPGYTGECKICGDLSATEVCKVCSYLKNLGILEKSKFEKI | not soluble
MSGELSNRFQGGKAFGLLKARQERRLAEINREFLCDQKYSDEENLPEKLTAFKEKYMEFDLNNEGEIDLMSLKRMMEKLGVPKTHLEMKKMISEVTGGVSDTISYRDFVNMMLGKRSAVLKLVMMFEGKANESSPKPVGPPPERDIASLP | soluble
MTFLKEYVIVSGASGFIGKHLLEALKKSGISVVAITRDVIKNNSNALANVRWCSWDNIELLVEELSIDSALIGIIHLATEYGHKTSSLINIEDANVIKPLKLLDLAIKYRADIFLNTDSFFAKKDFNYQHMRPYIITKRHFDEIGHYYANMHDISFVNMRLEHVYGPGDGENKFIPYIIDCLNKKQSCVKCTTGEQIRDFIFVDDVVNAYLTILENRKEVPSYTEYQVGTGAGVSLKDFLVYLQNTMMPGSSSIFEFGAIEQRDNEIMFSVANNKNLKAMGWKPNFDYKKGIEELLKRL | not soluble
MGSDKIHHHHHHMIIDINMHHLPEDLFTNEKILDGFLSTAPRSYGEIASLGTIPETGKRQIILEKPKGYQNLNYVEGDYSLEAKLQAMDDNGVDKAILRVPVWQEWLKVDTCKIVNDNAAEMCKRSAGRLYATACVPPWGGKDNLYELERCVKDLGMVGVQLACHYGQLYLDDEAFKPYMKVLNELNVPVVVHHTPLPVYWQSVYEYTNLRRELGRIIDQATAVGRELFSGMFEEFPNLKFIHTMFGGNWFANYNLLMPHKGKKEEAMLRLDISESDRIKMYLKNNIYFDMTHPASWGKDQVECAIKVCGADHVLFGSSFPVFYNWMSQGIECVKSLDITEKERELITSGNAIRLFKLDV | not soluble
MTLTQEKRSYMEKLSDENGIISALAFDQRGALKRLMAQYQTQEPTIAQMEELKVLVAEELTPYASSMLLDPEYGLPAAKHLDKNAGLLLAYEKTGYDTTSTKRLPDCLVEWSAKRLKKQGADAVKFLLYYDVDGDEEVNQQKQAYIERIGSECKAEDIPFFLEILAYDETITDAASVEYAKVKPHKVLDAMKVFSDERFGIDVLKVEVPVNMKYVEGFGDGPIVHTQDQAANFFKQQDQATPLPYIYLSAGVSAKLFQDTLVFAKESGANFNGVLCGRATWAGSVKDYIEKGEAAARQWLRTEGFKNIDELNKVLKATATSWKER | soluble
SEEEHPVSHKKSKKKSKKHKEKDQIKKLDIETMEEKEEDLQREETAKLSNASPNPNEGVKEGCTASMEPSSALELPDYLIKYIAIVSYEQRQNYKDDFNAEYDEYRALHARMETVARRFIKLDAQRKRLSPGSKEYQNVHEEVLQEYQKIKQSSPNYHEEKYRCEYLHNKLAHIKRLIGEFDQQQAESWH | soluble
MFGNSYGGYLANLCAKIAPWSIDFILDNSSFVNLFGNIFRLIGFGKEIDFTRYHGTYDDTLFKNIFLYLSDKTYWNNNKFSKNYFSNARKIIREPLNKEHLIIQSLYPNPKYILYHSIFDERSPFKNKENFVHILKELNFKVEFFAISQVDNKFIKNLNHGMGLSTKLFFKKHLLQILKEPLQDKICKKEVSYKCDELVYTFKEENHQIILNITN | not soluble
MAIKLKSPWEIERMREAGALLTEVVEEVARHVEPGVSTWELDQIAYEAIRKRKAKPAFLGLYGFPATLCTSVNEVVVHGIPSKEPLKEGDILSVDVGLIYQGFAADMARTFPVGRVSPEAERLIRDTEAAFWEGMKYLRPGFRLGDVGHAIQTFLESRGYGVVREFVGHGVGREIHEDPQVPNFGKPGTGPKIRPGMTLALEPMVTLRPAPVVILDDGWAASAGRGNLAAHYENTVLVTEEGPELLTGVALARAE | soluble
MTELKNDRYLRALLRQPVDVTPVWMMRRAGRYLPEYKATRAQAGDFMSLCKNAELACEVTLQPLRRYPLDAAILFSDILTIPDAMGLGLYFEAGEGPRFTAPVTCKADVEKLPIPDPEGELGYVMNAVRTIRRELKGEVPLIGFSGSPWTLATYMVEGGSSKAFTVIKKMMYADPQALHLLLDKLAKSVTLYLNAQIKAGAQSVMIFDTWGGVLTGRDYQQFSLYYMHKIVDGLLRENDGRRVPVTLFTKGGGQWLEAMAETGCDALGLDWTTDIADARRRVGHKVALQGNMDPSMLYAPPARIEDEVATILAGFGQGEGHVFNLGHGIHQDVPPEHAGAFVEAVHRLSAQYHN | not soluble
MGSDKIHHHHHHMKVFSERADKPHAYLFGEYTNPLGFDPVELALSEDGQAWQSIFDDPNLSNVYLVDFDWLPPVIADTYRTAGTRDGQQLANSRLDQRDIVLKFIAYCRGDADEKLTFQSLSNFLIRRHNYWVAFDNDGSRMYHVREKTITAEYYGDKMMMITVTLNNFTGVAQSIMPSAHINEMPNIGLGLPTDIVNYVFRTSEFDVNNIGELPVDPLVQGDYFDITLTGIGSPTIANTTTGDAITCTKSLTTGDTFKLIGVNPQINGQAAGINTDNGIIRLASGNNHFKITGCQDLNCTVNFYFKYLN | not soluble
MKVEKFKVLLYLKKSGLDKNGKAPIMGRITLNRTMAQFGCKLSCTPKLWNPRESRLDGKSKEAVEVNAKIDKLLLAINSAYESLVERKTDFDAKAIKDLFQCSADTQMTLLKQLDAIIADIESRIGIDYKKGTLPNYQYTRLTLGLFVKKRYGTDDVAFGELDEQFIREYMDFCLDERGLALDTVRHYLAILKKTCRIAFKAGHSERYHFMHFKLPQKKENPPKALTREDFLKIRDLEIPERRKSLALTRDLFLFACYTGTAYADTVSITEENLFRDEEGSLWLKYHRKKNKMLARVKLLPEALAMLEKYKDPTRPTLLPPQEFRVLRGNM | not soluble
MGSDKIHHHHHHMRNYQIPNLFNLGDLETKKVLKAANQAHQALGELKGVVQTVPNQNILLGTLPLQEAKESSEIENIITTQDDLYQSNVATQQFTTIAAKEVHHYAQAVSFGFSEVRKTELITLNLIKQIQAKLEGNNAGFRKQIGTGLVNQRTGQVVYMPPQQPEMIEHYMSVLERFINDSEQIDYDPLVKMAIVHHQFESIHPFYDGNGRTGRIINILYLIQQNLLDTPILYLSRYINRNKDQYYYLLQFVRDHNDWEEWLIFMLNGIAETAKQTVDLINQIKKLMQEHKLLIRNQLPNIYSHELINNLYKYPYTKIDFIAEDCQVHRNTAGKRLEQLVDLGILKKVKIGKENFYINMELYYLLTK | not soluble
INYKQLQLQERTNIRKCQELLEQLNGKINLTYRADFKIPMEMTEKMQKSYTAFAIQEMLQNVFLVFRNNFSSTGWNETIVVRLLDELHQQTVFLKTVLEEKQEERLTWEMSSTALHLKSYYWRVQRYLKLMKYNSYAWMVVRAEIFRNFLIIRRLTRNFQN | soluble
MGSDKIHHHHHHMPVRRIALITNGYPDIYARERSFILPELKALLAYGHQVTLVPVREVTEVDPDLPDGVAVERRLAHLYRPWQLPATVLWMMFRGYFWREAWQCLGRGRLRYLGHFFKESVRATNTLRMQSALRDYDVLYTYWFKGESTGISLMPGTHARRLTRAHGYDLYEDRPNNEGYIPYREMTLPRLDRVVVLSEEARAYLEQRYPASVGRTVVSPLGVAHESDENPGPEADRIVLVSCSYPTPNKRLPLIGQLAAAVACARPSVKVVWMHFGCRREEAGLPVDFAGPPNLSVQFAGEAPNEHIRRWYATRPVSFFVNLSQSEGQPVSIMEAMAFGIPVMATGVGGIPEMLRHGGGMTLPEQPDVNAVAREMLSLLDDPSRYQAMREAARETQLAYFNTSANHRTLADLIGEF | not soluble
GMTRTMSFHKNCELCTTAGGEILWQDALCRVVHVENQDYPGFCRVILNRHVKEMSDLRPAERDHLMLVVFAVEEAVREVMRPDKINLASLGNMTPHVHWHVIPRFKRDRHFPNSVWGETKRESLPQALDQGSTTALKKAISVRLDQGEPVFMGM | soluble
